Like-named read-outs stand apart in the source and are kept apart here.
Legend:
[1] = target: T1, Human nerve growth factor (NGF) (human, UniProt P01138 122-241); test: SPR, kinetic fit (caption of panel 7d: hNGF; BedinvetmAb; 1:1 binding); the set-up for Bedinvetmab is not described in the text; column head 'Kinetics affinity KD (nM)'
T1 construct: Bought reagent; also called human NGF; hNGF

[2] = target: T1, Human nerve growth factor (NGF); test: cell-based or functional assay
[3] = target: T2, Protein A (Sensor Chip Protein A, Cytiva) (UniProt P38507 212-269); test: SPR (Biacore 8K), Sensor Chip Protein A, fusion protein produced in CHOZN injected over the chip, 1:1 binding kinetic fit; column head 'Kinetics affinity KD (nM)'
T2 construct: Commercial chip ligand; It may be a recombinant variant of staphylococcal protein A

[4] = target: T3, Canine FcRn-B2M recombinant protein (Immunitrack) (canine, UniProt A0A8I3PFR8 25-296; P19341 1-42); test: SPR (Biacore 8K), canine FcRn-B2M amine-coupled on CM5, running buffer pH 6, fusion protein as analyte; steady state affinity
T3 chain 1: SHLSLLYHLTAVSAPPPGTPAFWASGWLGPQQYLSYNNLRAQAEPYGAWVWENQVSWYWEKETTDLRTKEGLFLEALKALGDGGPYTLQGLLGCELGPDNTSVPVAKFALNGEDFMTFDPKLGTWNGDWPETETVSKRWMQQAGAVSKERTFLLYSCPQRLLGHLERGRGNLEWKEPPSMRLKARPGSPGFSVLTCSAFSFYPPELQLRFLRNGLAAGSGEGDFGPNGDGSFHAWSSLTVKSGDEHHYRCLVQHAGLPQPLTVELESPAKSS
T3 chain 2: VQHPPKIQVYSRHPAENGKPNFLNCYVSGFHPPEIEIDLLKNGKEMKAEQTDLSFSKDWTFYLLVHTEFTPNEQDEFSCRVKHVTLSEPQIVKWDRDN

[5] = target: T4, Rat nerve growth factor (NGF) (rat, UniProt P25427 122-241); test: SPR (Biacore 8K), PetML119 captured on Protein A chip, rat NGF as analyte, multi-cycle kinetics; column head 'Kinetics affinity KD (nM)'
T4 construct: Bought reagent; also called rat NGF

[6] = target: T5, Murine FcRn-B2M recombinant protein (Immunitrack) (murine, UniProt Q61559 22-297; P01887 21-119, limits assumed); test: SPR (Biacore 8K), murine FcRn-B2M amine-coupled on CM5, running buffer pH 6, fusion protein as analyte; steady state affinity
T5 construct: Bought reagent; also called murine neonatal receptor
T5 sequence (looked up): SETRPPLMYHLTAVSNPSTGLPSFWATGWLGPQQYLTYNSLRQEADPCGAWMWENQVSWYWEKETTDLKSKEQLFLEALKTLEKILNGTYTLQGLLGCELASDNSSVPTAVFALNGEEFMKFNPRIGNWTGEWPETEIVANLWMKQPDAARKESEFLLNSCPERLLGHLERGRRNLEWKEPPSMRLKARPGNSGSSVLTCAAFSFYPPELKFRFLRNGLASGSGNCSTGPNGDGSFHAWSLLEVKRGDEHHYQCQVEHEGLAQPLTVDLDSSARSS
T5 sequence (b2m, looked up): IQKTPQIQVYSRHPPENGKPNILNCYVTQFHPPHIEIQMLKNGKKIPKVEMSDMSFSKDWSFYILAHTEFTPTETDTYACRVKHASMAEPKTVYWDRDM

[7] = target: T2, Protein A (Sensor Chip Protein A, …); test: SPR (Biacore 8K), Sensor Chip Protein A, fusion protein produced in CHO-s injected over the chip, 1:1 binding kinetic fit; column head 'Kinetics affinity KD (nM)'
[8] = target: T1, Human nerve growth factor (NGF); test: SPR (Biacore 8K), PetML119 captured on Protein A chip, human NGF as analyte, multi-cycle kinetics; column head 'Kinetics affinity KD (nM)'
[9] = target: T5, Murine FcRn-B2M recombinant protein …; test: SPR (Biacore 8K), murine FcRn-B2M amine-coupled on CM5, running buffer pH 6, fusion protein as analyte; steady state affinity; remark: listed apart in the source
[10] = target: T3, Canine FcRn-B2M recombinant protein …; test: SPR (Biacore 8K), canine FcRn-B2M amine-coupled on CM5, running buffer pH 6, fusion protein as analyte; steady state affinity

B1: Bedinvetmab (antibody, V domains shown)
VH: EVQLVESGGDLVKPGGSLRLSCVASGFTFSSHGMHWVRQSPGKGLQWVAVINSGGSSTYYTDAVKGRFTISRDNAKNTVYLQMNSLRAEDTAMYYCAKESVGGWEQLVGPHFDYWGQGTLVIVSS
VL: QSVLTQPTSVSGSLGQRVTISCSGSTNNIGILGASWYQLFPGKAPKLLVYGNGNRPSGVPDRFSGADSGDSVTLTITGLQAEDEADYYCQSFDTTLGAHVFGGGTHLTVL
Kd [1]: 0.073 nM
IC50 (nM), inhibition of NGF-dependent TF-1 cell proliferation [2]: 1.65 nM

B2: PetML119 (canine p75NTR ECD-canine IgGB wt Fc protein fusion) (Fc fusion)
chain: KEACPTGLYTHSGECCKACNLGEGVAQPCGANQTVCEPCLDSVTFSDVVSATEPCKPCTECVGLQSMSAPCVEADDAVCRCAYGYYQDETTGRCEACRVCEAGSGLVFSCQDRQNTVCEECPDGTYSDEANHVDPCLPCTVCEDTERQLRECTRWADAECEEIPGGGGRENGRVPRPPDCPKCPAPEMLGGPSVFIFPPKPKDTLLIARTPEVTCVVVDLDPEDPEVQISWFVDGKQMQTAKTQPREEQFNGTYRVVSVLPIGHQDWLKGKQFTCKVNNKALPSPIERTISKARGQAHQPSVYVLPPSREELSKNTVSLTCLIKDFFPPDIDVEWQSNGQQEPESKYRTTPPQLDEDGSYFLYSKLSVDKSRWQRGDTFICAVMHEALHNHYTQKSLSHSPGK
notes: Glycosylated, made in CHO cells; also called Fc-Bwt; Sample 1
Kd [3]: 1.3 nM
Kd [4]: 6000 nM
Kd [5]: 0.12 nM
Kd [6]: 2000 nM
Kd [7]: 2.8 nM
Kd [8]: 0.12 nM
IC50 (nM), inhibition of NGF-dependent TF-1 cell proliferation [2]: 15.2 nM

B3: PetML122 (canine p75NTR ECD-canine Fc YTE protein fusion) (Fc fusion)
chain: KEACPTGLYTHSGECCKACNLGEGVAQPCGANQTVCEPCLDSVTFSDVVSATEPCKPCTECVGLQSMSAPCVEADDAVCRCAYGYYQDETTGRCEACRVCEAGSGLVFSCQDRQNTVCEECPDGTYSDEANHVDPCLPCTVCEDTERQLRECTRWADAECEEIPGGGGRENGRVPRPPDCPKCPAPEMLGGPSVFIFPPKPKDTLYITREPEVTCVVVDLDPEDPEVQISWFVDGKQMQTAKTQPREEQFNGTYRVVSVLPIGHQDWLKGKQFTCKVNNKALPSPIERTISKARGQAHQPSVYVLPPSREELSKNTVSLTCLIKDFFPPDIDVEWQSNGQQEPESKYRTTPPQLDEDGSYFLYSKLSVDKSRWQRGDTFICAVMHEALHNHYTQKSLSHSPGK
notes: also called Fc-B-YTE; Sample 2
Kd [3]: 15 nM
Kd [9]: 90 nM
Kd [10]: 400 nM

From patent US20260001933A1 (PETMEDIX, published 2026)
